Data taken from patent US20260109774A1 (JUNO THERAPEUTICS, published 2026).
Residue numbers refer to the chain shown, from its start.

T1: human B-cell maturation antigen (BCMA) on cells (human, UniProt Q02223 1-184)
T1 construct: Recombinant on HEK293 or K562 cells, or endogenous on cell lines (H929, RPMI 8226, OPM2, MM1S, Daudi); also called hBCMA; huBCMA
T1 chain: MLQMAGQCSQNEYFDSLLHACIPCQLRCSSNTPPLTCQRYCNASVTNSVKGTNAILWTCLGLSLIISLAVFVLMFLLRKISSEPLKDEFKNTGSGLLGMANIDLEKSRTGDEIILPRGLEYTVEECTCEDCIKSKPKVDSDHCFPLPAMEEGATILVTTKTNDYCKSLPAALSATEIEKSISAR

B1: BCMA-21 scFv (scFv)
scFv: EVQLVESGGGLVKPGGSLKLSCAASGFTFSDYYMSWIRQAPGKGLEWVSYISSSGSTIYYADSVKGRFTISRDNAKNSLYLQMNSLRAEDTAVYYCAKVDGGYTEDYWGQGTLVTVSSGGGGSGGGGSGGGGSQSVLTQPPSASGTPGQRVTISCSGSGSNIGSNDVSWYQQIPGTAPKLLIYWNDQRPSGVPDRFSGSKSGISASLAISGLRSEDEADYYCAAWDDSLNGYVFGTGTKVTVL
B2: BCMA-6 scFv (scFv)
scFv: QVQLVQSGGGLVQPGRSLRLSCTASGFTFGDYAMSWFRQAPGKGLEWVGFIRSKAYGGTTEYAASVKGRFTISRDDSKSIAYLQMNSLKTEDTAVYYCAAWSAPTDYWGQGTLVTVSSGGGGSGGGGSGGGGSDIVMTQSPSSLSVSVGERVTITCRASQSISNSLAWYKQRPGEAPKLLIHAASNVEDGVPSRFSGRGSGTVFTLAISNVQPEDFATYYCQQSHMYPPTFGGGTKVEIK
B3: BCMA-15 scFv (scFv)
scFv: QVQLLESGGGLVKPGGSLRLSCAASGFTFSSYGMHWVRQAPGKGLEWVAVISYDGSNKYYADSVKGRFTISRDNSKNTLYLQMNSLRAEDTAVYYCAKDQYSSSAQRADFDYWGQGTLVTVSSGGGGSGGGGSGGGGSQSVLTQPPSASGTPGQRVTISCSGSGSNIGSNDVSWYQQIPGTAPKLLIYWNDQRPSGVPDRFSGSKSGTSASLVISGLRSEDEADYYCAAWDDSLSGWVFGGGTKLTVL
B4: BCMA-22 scFv (scFv)
scFv: EVQLVESGGGLVKPGGSLRLSCAASGFTFSDYYMSWIRQAPGKGLEWVSYISSSGSTIYYADSVKGRFTISRDNAKNSLYLQMNSLRAEDTAVYYCAKVDGDYTEDYWGQGTLVTVSSGGGGSGGGGSGGGGSQSALTQPASVSGSPGQSITISCTGSSSDVGKYNLVSWYQQPPGKAPKLIIYDVNKRPSGVSNRFSGSKSGNTATLTISGLQGDDEADYYCCSYGGSRSYVFGTGTKVTVL
B5: BCMA-40 scFv (scFv)
scFv: B4 scFv with G163S, V240L
B6: BCMA-4 scFv (scFv)
scFv: QVQLVQSGGGLVQPGRSLRLSCTASGFTFGDYAMSWFRQAPGKGLEWVGFIRSKAYGGTTEYAASVKGRFTISRDDSKSIAYLQMNSLKTEDTAVYYCAAWSAPTDYWGQGTLVTVSSGGGGSGGGGSGGGGSAIRMTQSPSSLSASLGDRVTITCRASQDIRNSLAWYQQRPGKAPKLLLSAASRLESGVPSRFSGTTSGAEYALSISSLQPEDVASYFCQQYYSLPLSFGGGTKVEIK
B7: BCMA-24 scFv (scFv)
scFv: EVQLVQSGGGLVKPGGSLRLSCAASGFTFSDYYMSWIRQAPGKGLEWVSGISWNSGSIGYADSVKGRFTISRDNAKNSLYLQMNSLRAEDTAVYYCARDLGPPYGDDAFDIWGQGTMVTVSSGGGGSGGGGSGGGGSDIVMTQSPDSLAVSLGERATINCKSSQSVLYSSNNKNYLAWYQQKPGQPPKLLIYWGSTRESGVPDRFSGSGSGTDFTLTISSLQAEDVAIYHCQQYISLPWTFGQGTKVEIK
B8: BCMA-18 scFv (scFv)
scFv: EVQLLESGGGLVQPGGSLRLSCAASGFTFSSYWMSWHRQAPGKGPEWVAHINQDGSEKYYVDSVKGRFTISRDNAESSLYLQMNSLRAEDTAVYYCARWLAVTNWGQGTLVTVSSGGGGSGGGGSGGGGSQSVLTQPPSASGTPGQRVTISCSGSGSNIGSNDVSWYQQIPGTAPKLLIYWNDQRPSGVPDRFSGSKSGTSASLAISGLRSEDEADYYCAAWDDSLNGWVFGGGTKLTVL
B9: BCMA-12 scFv (scFv)
scFv: EVQLVESGGGLVKPGGSLRLSCAASGFTFSDYYMSWIRQAPGKGLEWVSYISSSGSTIYYADSVKGRFTISRDNAKNSLYLQMNSLRAEDTAVYYCAKVDGPPSFDIWGQGTMVTVSSGGGGSGGGGSGGGGSQSALTQPPSVSAAPGQKVTISCSGSRSNIGNNYVSWYQQLPGTAPKLLIYDNAKRPSGIPDRFSGSKSGTSATLDIAGLQTGDEADYYCQVWDSSSDHWVFGGGTKLTVL
B10: BCMA-7 scFv (scFv)
scFv: QVQLVQSGGGLVQPGRSLRLSCTASGFTFGDYAMSWFRQAPGKGLEWVGFIRSKAYGGTTEYAASVKGRFTISRDDSKSIAYLQMNSLKTEDTAVYYCAAWSAPTDYWGQGTLVTVSSGGGGSGGGGSGGGGSVIQLTQSPSSLSASVGDRVTITCRASQDIGDYLAWFQQRPGKAPKSLIYVASTLQSGVPSRFSGSGSGTHFTLTINSLQPEDFATYYCQQYHSHPWTFGPGTKVDIK
B11: BCMA-32 scFv (scFv)
scFv: QVQLVESGGGLVKPGGSLRLSCAASGFTFSDYYMSWIRQAPGKGLEWVSYISSSGSTIYYADSVKGRFTISRDNAKNSLYLQMNSLRAEDTAVYYCAKVDGPPSFDIWGQGTMVTVSSGGGGSGGGGSGGGGSQTVVTQPPSVSVAPGQTARITCGGNNIGSKGVHWYRQRPGQAPEVVIYDDSDRPSGVPDRFSGSNSGNTATLTVRGVEAGDEADYYCQVWDSSSDHWVFGGGTKLTVL
B12: BCMA-8 scFv (scFv)
scFv: QVQLVQSGGGLVQPGRSLRLSCTASGFTFGDYAMSWFRQAPGKGLEWVGFIRSKAYGGTTEYAASVKGRFTISRDDSKSIAYLQMNSLKTEDTAVYYCAAWSAPTDYWGQGTLVTVSSGGGGSGGGGSGGGGSDIVMTQSPDSLAVSLGERATINCKSSQSVLYSSNNKNYLAWYQQKPGQPPKLLIYWASTRESGVPDRFSGSGSGTDFTLTISSLQAEDVAVYYCQQYYSTPYTFGQGTKLEIK
B13: BCMA-44 scFv (scFv)
scFv: B12 scFv with Q1E, I135V, S161N, V162L, T233S
B14: BCMA-31 scFv (scFv)
scFv: B12 scFv with Q1E, I135V, N155S, Y164N, L172V, Q176K, L186V, Y188S, E244D
B15: BCMA-46 scFv (scFv)
scFv: B12 scFv with A145V, Y164H, S232T, Y235L, Q239G, L243V
B16: BCMA-3 scFv (scFv)
scFv: B12 scFv with A145V, Y164H, S232T, Y235L, Q239G, L243V
B17: BCMA-11 scFv (scFv)
scFv: QVQLVQSGGGLVQPGRSLRLSCAASGFTFDDYAMHWVRRAPGKGLEWVSGISWNSGSIGYADSVKGRFTISRDNAKNSLYLQMNSLRAEDTAVYYCARDLGPDYDPDAFDIWGQGTMVTVSSGGGGSGGGGSGGGGSQLVLTQPPSASGTPGQRVTISCSGSSSNIGSNAVNWYQQLPGTAPEVLIYNSHQRPSGVPDRFSGSKSGTSASLAINGLQSEDEADYYCAAWDDSLRGYVFGTGTKLTVL
B18: BCMA-17 scFv (scFv)
scFv: QVQLVQSGGGLVKPGGSLRLSCAASGFTFSDYYMSWIRLAPGKGLEWVSYISSSGSTIYYADSVKGRFTISRDNAKNSLYLQMNSLRAEDTAVYYCAREADSSADYWGQGTLVNVSSGGGGSGGGGSGGGGSQPVLTQPPSVSVAPGKTAMITCGGNNIGFKGVQWYQQKTGQAPVLVVYDDSDRPSGIPERFSGSNSGNTATLTISRVEAGDEADYYCQVWDSASDHWVFGGGTKLTVL
B19: BCMA-33 scFv (scFv)
scFv: B18 scFv with L39Q, S53G
B20: BCMA-2 scFv (scFv)
scFv: EVQLVESGGGLVKPGGSLRLSCAASGFTFSDYYMSWIRQAPGKGLEWVSYISSSGSTIYYADSVKGRFTISRDNAKNSLYLQMNSLRAEDTAVYYCAKVDGPPSSDIWGQGTMVTVSSGGGGSGGGGSGGGGSEIVMTQSPATLSVSPGETATLSCRASQSIKTNLAWYQQKPGQAPRLLIYAASTRATGIPDRFSGSGSGTDFTLTITRLEPEDFAVYYCQQYGSSPTFGRGTKLEIK
B21: BCMA-16 scFv (scFv)
scFv: EVQLVQSGPEVKKPGTSVKVSCKASGFTFTSSAMQWVRQARGQRLEWIGWIVVGSGNTNYAQKFQERVTITRDMSTSTAYMELSSLRSEDTAVYYCAAAPYYDILTGYYLWGQGTLVTVSSGGGGSGGGGSGGGGSQSALTQPPSASGTPGQRVTISCSGSGSNIGSNDVSWYQQIPGTAPKLLIYWNDQRPSGVPDRFSGSKSGTSASLAISGLQSEDEADYYCASWDDSLSGWVFGGGTKLTVL

Biological target: T1, human B-cell maturation antigen (BCMA) …
Assay: flow cytometry on BCMA-expressing HEK293 cells vs control cells, crude lysate or bacterial supernatant; clone listed in Table E2
Experimental: Specific binding of resulting scFv clones to BCMA-expressing HEK293 cells, as compared to control cells not expressing BCMA, was assessed by flow cytometry either with in vitro translated crude cell lysate or with bacterially-produced supernatant.

Binding result, binds:
B1
B2
B3
B4
B5
B6
B7
B8
B9
B10
B11
B12
B13
B14
B15
B16
B17
B18
B19
B20
B21
